# Non-standard residues stand in square brackets, D forms with d. No end group written: not given here. pT = C[C@@H](OP(=O)(O)O)[C@H](N)C(=O)O; pS = N[C@@H](COP(=O)(O)O)C(=O)O
# How the values were obtained:
# [1] = target: T1, HLA-B*0702 (HLA-B7) peptide complexes (Homo sapiens, UniProt P01889); test: HLA-B*0702 phosphopeptides associated with leukemia samples (isolation of HLA-associated peptides); conditions: for Copies/cell class, ALL1: acute lymphoblastic leukemia sample ALL1; for Copies/cell class, HCL1: hairy cell leukemia sample HCL1; for Copies/cell class, B Cell: healthy B cells; for Copies/cell class, T Cell: healthy T cells; for Copies/cell class, BM: healthy bone marrow
# T1 construct: endogenous in cells; host or cells: JY B-lymphoblastoid line; primary ALL, CLL, HCL, AML samples; bone marrow; healthy B and T cells
# From the text: To identify naturally processed tumor-associated phosphopeptides, HLA-A*0201 (HLA-A2) and HLA-B*0702 (HLA-B7) peptide complexes from four (4) chronic lymphocytic leukemia (CLL) tumor samples, a mantle cell lymphoma sample (MCL), one acute lymphoblastic leukemia (ALL), and an acute myeloid leukemia (AML) sample, in addition to healthy splenic T and B-cells and the cultured lymphoblastoid cell line JY were isolated. These efforts yielded 10 HLA-A2-restricted and 86 HLA-B7-restricted phosphopeptide antigens (see Tables 6 and 7).
# All cell lines were grown at 37° C. with 5% CO2 in growth medium consisting of RPMI 1640 supplemented with 10% FCS and two mM L-glutamine. Blood or leukapheresis samples were taken from patients with high-burden leukemia in heparin. Tumor cells were recovered by layering the blood over density gradient (Ficoll) and collecting the tumor layer following centrifugation. The tumor was washed in tris-buffered saline (TBS). The purity of the tumor was assessed using flow cytometry and was >98% pure in all cases. For healthy T and B-cell populations, a normal spleen sample processed and tonsil sample was collected and lymphocytes released through mechanical disruption. Mononuclear cells were isolated using a density gradient and 10^9 T cells isolated using anti-CD19 or anti-CD3 microbeads (Miltenyi Biotec Inc., Auburn, California, United States of America) with purity >98% were obtained. Bone marrow sample was obtained from an elective orthopedic procedure and red cell-depleted using hypotonic lysis. This sample was not processed further.
# Class I MHC molecules were immunoaffinity purified from the JY cell line or from primary tumor samples, and their associated peptides were extracted as previously described in Zarling et al., 2006. Approximately 1.2-14×10^9 cells were lysed in a solution containing 20 mM Tris-HCl (pH 8.0), 150 mM NaCl, 1% CHAPS, one mM PMSF, five μg/mL aprotinin, 10 μg/mL leupeptin, 10 μg/mL pepstatin A, 1 μg/ml calyculin A, and phosphatase inhibitor (cocktails I and II; Sigma-Aldrich). The mixture was subjected to centrifugation and the resulting supernatant was passed over protein A sepharose pre-loaded with the HLA-A2-specific antibody BB7.2 or HLA-B7-specific antibody MEL Peptides were eluted from the purified class I MHC molecules with 10% acetic acid.
# [2] = target: T2, HLA-B*0702 (Homo sapiens, UniProt P01889); test: Phosphopeptides presented in association with class I molecules (HLA-B*0702) on cancer cells: melanoma and/or leukemia; parameters: key: Melanoma (M); Leukemia (L); L/M: Melanoma (M) and/or Leukemia (L); conditions: cancer type on which the HLA-B*0702 phosphopeptide is presented
# T2 construct: endogenous in cells; host or cells: melanoma and/or leukemia cells
"Copies/cell class, AML1 [1]","Copies/cell class, CLL2 [1]","Copies/cell class, JY [1]","Copies/cell class, ALL1 [1]","Copies/cell class, HCL1 [1]",L/M [2],"Copies/cell class, CLL4 [1]","Copies/cell class, B Cell [1]","Copies/cell class, T Cell [1]","Copies/cell class, BM [1]",Substance
1 (1 indicates <1 copy/cell),1 (1 indicates <1 copy/cell),2 (2 indicates 1-5 copies/cell),2 (2 indicates 1-5 copies/cell),2 (2 indicates 1-5 copies/cell),L,,,,,288 (KPPYRSH[pS]L; listed as Homo sapiens) [compound 288]
,,,1 (1 indicates <1 copy/cell),1 (1 indicates <1 copy/cell),L,,,,,289 (KPQTRGK[pT]F; listed as Homo sapiens) [compound 289]
,1 (1 indicates <1 copy/cell),,1 (1 indicates <1 copy/cell),1 (1 indicates <1 copy/cell),L,1 (1 indicates <1 copy/cell),,,,291 (KPR[pS]PDHVL; listed as Homo sapiens) [compound 291]
4 (4 indicates >25 copies per cell),4 (4 indicates >25 copies per cell),4 (4 indicates >25 copies per cell),2 (2 indicates 1-5 copies/cell),4 (4 indicates >25 copies per cell),L/M,4 (4 indicates >25 copies per cell),,,,295 (KPR[pS]PVVEL; listed as Homo sapiens) [compound 295]
,1 (1 indicates <1 copy/cell),4 (4 indicates >25 copies per cell),2 (2 indicates 1-5 copies/cell),2 (2 indicates 1-5 copies/cell),L,,2 (2 indicates 1-5 copies/cell),3 (3 indicates 6-25 copies per cell),,296 (KPY[pS]PLASL; listed as Homo sapiens) [compound 296]
1 (1 indicates <1 copy/cell),,,,,L,,,,,297 (LPA[pS]PRARL; listed as Homo sapiens) [compound 297]
3 (3 indicates 6-25 copies per cell),,,,,L,,,,,302 (QPR[pS]PGPDYSL; listed as Homo sapiens) [compound 302]
,,,4 (4 indicates >25 copies per cell),,L,,1 (1 indicates <1 copy/cell),,,305 (RAP[pS]PSSRM; listed as Homo sapiens) [compound 305]
,2 (2 indicates 1-5 copies/cell),4 (4 indicates >25 copies per cell),2 (2 indicates 1-5 copies/cell),1 (1 indicates <1 copy/cell),L,,2 (2 indicates 1-5 copies/cell),3 (3 indicates 6-25 copies per cell),,306 (RPAK[pS]MDSL; listed as Homo sapiens) [compound 306]
1 (1 indicates <1 copy/cell),2 (2 indicates 1-5 copies/cell),4 (4 indicates >25 copies per cell),4 (4 indicates >25 copies per cell),2 (2 indicates 1-5 copies/cell),L,,1 (1 indicates <1 copy/cell),3 (3 indicates 6-25 copies per cell),1 (1 indicates <1 copy/cell),307 (RPA[pS]AGAML; listed as Homo sapiens) [compound 307]
2 (2 indicates 1-5 copies/cell),3 (3 indicates 6-25 copies per cell),4 (4 indicates >25 copies per cell),1 (1 indicates <1 copy/cell),2 (2 indicates 1-5 copies/cell),L/M,2 (2 indicates 1-5 copies/cell),,,,308 (RPA[pS]ARAQPGL; listed as Homo sapiens) [compound 308]
1 (1 indicates <1 copy/cell),2 (2 indicates 1-5 copies/cell),4 (4 indicates >25 copies per cell),2 (2 indicates 1-5 copies/cell),1 (1 indicates <1 copy/cell),M,1 (1 indicates <1 copy/cell),1 (1 indicates <1 copy/cell),1 (1 indicates <1 copy/cell),,309 (RPA[pS]PAAKL; listed as Homo sapiens) [compound 309]
,,,1 (1 indicates <1 copy/cell),,L,,,,,310 (RPA[pT]GGPGVA; listed as Homo sapiens) [compound 310]
2 (2 indicates 1-5 copies/cell),1 (1 indicates <1 copy/cell),4 (4 indicates >25 copies per cell),2 (2 indicates 1-5 copies/cell),1 (1 indicates <1 copy/cell),L,,,,,312 (RPD[pS]RLGKTEL; listed as Homo sapiens) [compound 312]
,,,,4 (4 indicates >25 copies per cell),L,4 (4 indicates >25 copies per cell),4 (4 indicates >25 copies per cell),4 (4 indicates >25 copies per cell),,313 (RPF[pS]PREAL; listed as Homo sapiens) [compound 313]
1 (1 indicates <1 copy/cell),1 (1 indicates <1 copy/cell),3 (3 indicates 6-25 copies per cell),1 (1 indicates <1 copy/cell),1 (1 indicates <1 copy/cell),L,,,,,314 (RPH[pS]PEKAF; listed as Homo sapiens) [compound 314]
,,,1 (1 indicates <1 copy/cell),,L,,,,,315 (RPI[pT]PPRNSA; listed as Homo sapiens) [compound 315]
1 (1 indicates <1 copy/cell),,,,,L,,,,,317 (RPKLS[pS]PAL; listed as Homo sapiens) [compound 317]
,1 (1 indicates <1 copy/cell),,2 (2 indicates 1-5 copies/cell),,L,,,,1 (1 indicates <1 copy/cell),318 (RPKPSS[pS]PV; listed as Homo sapiens) [compound 318]
,3 (3 indicates 6-25 copies per cell),4 (4 indicates >25 copies per cell),1 (1 indicates <1 copy/cell),1 (1 indicates <1 copy/cell),L,2 (2 indicates 1-5 copies/cell),1 (1 indicates <1 copy/cell),1 (1 indicates <1 copy/cell),,319 (RPN[pS]PSPTAL; listed as Homo sapiens) [compound 319]
,,,1 (1 indicates <1 copy/cell),,L,,,,,320 (RPPPPPD[pT]PP; listed as Homo sapiens) [compound 320]
,1 (1 indicates <1 copy/cell),4 (4 indicates >25 copies per cell),2 (2 indicates 1-5 copies/cell),1 (1 indicates <1 copy/cell),L,1 (1 indicates <1 copy/cell),,2 (2 indicates 1-5 copies/cell),,321 (RPP[pS]PGPVL; listed as Homo sapiens) [compound 321]
,1 (1 indicates <1 copy/cell),,3 (3 indicates 6-25 copies per cell),1 (1 indicates <1 copy/cell),L,,2 (2 indicates 1-5 copies/cell),2 (2 indicates 1-5 copies/cell),,322 (RPP[pS]SEFLDL; listed as Homo sapiens) [compound 322]
